This note sets out measurements from paper PMC6385126.

In data set [1] the test system is His1 (position 1, -----HVD---). In words: NMR. To be noted: 25 °C; none stated (0.1% DSS as shift standard); Non-deuterated peptide, 1 mM, free in solution.
In data set [2] the test system is His1 (position 1, -----HVD---). The data set is described as follows: Raman. To be noted: 22 °C; not stated (no added salt apart from NaOH/HCl used for pH adjustment); none stated; C2-deuterated peptide H(C2-D)VD, about 10 mM, free in solution.

One may read the pKa as the pH at which an ionisable group is half protonated. For the substance “HVD tripeptide (Ac-His-Val-Asp-NH2), N-terminal fragment of a hydrogel-forming semenogelin I peptide (synthetic; sequence derived from Homo sapiens semenogelin I)”, the values for the pKa in data set [1] and in data set [2] were 6.87 ± 0.03 and 6.82, respectively.
